The subject of data set [1] is alanine substituted 13mer tau peptides. Kind of data set: Alanine scanning mutagenesis (ASM) peptide ELISA. It is filed as binding, human. As to conditions: numbering according to SEQ ID NO: 1; description text 'may be'. The procedure: To further elucidate epitopes of the scAb panel, and identify the critical amino acids needed for binding, alanine scanning mutagenesis of the parent 13 aa peptides for scAbs CE2, S1D12, CA4 and S1G2 was performed. […] Briefly, 5 μg/ml streptavidin (Thermo Fisher) was adsorbed to Nunc 96-well MaxiSorp plates and following incubation at 37° C., for 1 h, the plates were washed as normal and blocked with 2% MPBS. N-terminally biotinylated peptides (Prolmmune Ltd) were added to the plates and incubated for 1 h at 37° C. Subsequently, test scAbs at starting concentrations of 100-500 nM was added and double diluted across the plate for each peptide and incubated for 1 h at 37° C. Rest of the ELISA was conducted as described above and the plates were read at absorbance 450 nm. Immunoreactivity of the scAb of interest was quantified as the % of scAb was bound for each peptide at a chosen concentration (FIG. 15-20).
(In general: ELISA stands for enzyme-linked immunosorbent assay.)

Data set [2] can be described thus: Pharmacokinetic study of S1D12 mAb, single dose, plasma and brain (dGAE ligand binding ELISA). It is filed as in vivo, mouse. As to conditions: single dose 30 mg/kg i.p., NMRI mice, plasma. The procedure: For the PK study, a total of 42 female NMRI mice (Swiss-type mouse, Naval Medical Research Institute) aged 6 months were allocated into six groups according to sample collection time (Table 30 for group size). Animals were injected intraperitoneally with S1D12 (30 mg/kg) and sacrificed 24-, 48-, 72-hours and 7-, 14- and 31-days after injection to collect blood and brain samples. A control group was also included in which animals were sacrificed to collect blood and brain, but no test item was administered.
Blood samples were centrifuged to obtain plasma at 2000×g for 5 min at 6° C., and samples were stored at −20° C. After blood collection, each mouse was perfused with heparinized saline for 2-3 minutes and the entire brain removed rapidly and snap frozen in liquid nitrogen and stored at −80° C.
Briefly, dGAE (1 μg/mL) was used to coat ELISA plates and blocked with 2% Marvel. […] Following washing, HRP-conjugated anti-mouse IgG as detector was added, and the assay developed using TMB solution as normal. The absorbance at 450 nm was read using a Clariostar plate reader (BMG Labtech) and MARS Clariostar software used to calculate S1D12 concentration from a standard curve.
Average values from each group (representing a time point) was plotted (FIG. 10) and the in vivo half-life, Cmax and Tmax calculated by performing a non-compartmental analysis of the plasma data using the PKSolver2.0 software (FIG. 51, Table 31). […] Here a higher coating concertation of dGAE at 10 μg/ml was used to compete off antibody binding to tau present in the brain.

Data set [3] addresses T1, dGAE (Homo sapiens, UniProt P10636). Kind of data set: dGAE fibril assembly, Thioflavin S fluorescence. As to conditions: 25 and 100 μM dGAE, ratios 4:1 or 1:1. It is filed as biochemical. As to the method:
(§1) dGAE protein was diluted into 10 mM phosphate buffer, pH 7.4 (PB) with monoclonal antibody s1D12 at a ratio of 4:1 protein: Ab (100 μM dGAE+25 μM s1D12 and 10 μM dGAE+2.5 μM s1D12) or 1:1 (25 μM dGAE+25 μM s1D12).
(§2) As a positive control, dGAE was prepared at a final concentration of 10, 25 or 100 μM in 10 mM PB. Negative controls consisted of dGAE with a non-tau IgG antibody at a ratio of 4:1 (10 μM dGAE+2.5 μM anti-ovalbumin), or antibody alone (25 or 2.5 μM s1D12 and 2.5 μM anti-ovalbumin). Samples were agitated at 700 rpm at 37° C., for 3 days.
(§3) For CD, 60 μL sample was placed in a 0.1 mm quartz cuvette and placed into a JASCO spectropolarimeter. 100 μL ThS in 20 mM MOPS buffer was added to 50 μL of each sample to a final concentration of 20 μM, mixed well, incubated at room temperature for 10 minutes then fluorescence intensity measured in a Cary Eclipse spectrophotometer using an excitation wavelength of 440 nm. Baseline readings from 10 mM PB were subtracted from CD and ThS measurements.

Data set [4] concerns the target T1, dGAE. Kind of data set: dGAE fibril assembly, circular dichroism. As to conditions: 100 μM dGAE + 25 μM antibody (4:1), antibody spectrum subtracted. It is filed as biochemical. As to the method: as §1, §2, §3
(In general: Circular dichroism is the unequal absorption of left and right circularly polarised light.)

In a further data set the test system is plasma tau. Kind of data set: Plasma tau (Simoa) after S1D12 immunotherapy. It is filed as in vivo, mouse. As to conditions: L66 mice. As to the method:
In a six-week repeat-dose study, a total of 12 WT, 12 Line 1 (L1) and 12 Line 66 homozygotes (L66+/*) female mice aged 2-months at the beginning of the study were used (Table 32 for group size). Mice in each genotype were injected intraperitoneally (i.p.) with either vehicle or S1D12 (30 mg/kg), once per week, for six consecutive weeks.
Three-step assays were performed and analysed as per previously described plasma screening methods in this document.

Another data set addresses dGAE aggregates (Homo sapiens, UniProt P10636). Put plainly: Sandwich ELISA on SDS/Triton X-100 treated dGAE aggregates. It is filed as binding. As to the method:
For aggregation, 1000 μL 100 μM dGAE+10 μL 10 mM DTT was added to a ‘LoBind’ microfuge tubes and agitated at 700 RPM/37° C., for 24 hours. Resulting sample centrifuged at 17,000×g/4° C., for 60 min and supernatant discarded to remove left over monomer. Pellet resuspended in half the original volume for future experiments and hereafter referred to as ‘aggregates’. 1 μl of aggregates was added to 1 ml of PBS and SDS was added to a final concentration of 1% (w/v). This was left to incubate on lab bench for 1 h with gentle agitation every 15 minutes. In order to neutralise the SDS effect on ELISA, Triton X-100 added to a final concentration of 3% (v/v) and mixed gently by pipetting to prevent any bubble formation. […] Similarly aggregates treated with only SDS or Triton X-100, untreated aggregates, dGAE monomers treated with only SDS or SDS+Titon X-100 were also added to designated wells as controls. All samples were then double diluted across the plate in final volumes of 100 μl. The final column was left with no protein to act as a blank. This was allowed to stand at room temperature for 1 hour followed by the addition of detection scAb-S1G2 at 10 μg/ml. Anti-HuCk HRP labelled secondary antibody was added as described previously and ELISA data generated was represented using the graph below. In addition, limits of detection (LoD) of various core binding antibody pairing for SDS Triton X-100 treated dGAE aggregates were calculated using the above describe ELISA method and substituting capture mAbs and detection scAbs as shown in Table 30.

Entries after “also recorded” stand apart in the source; their conditions may differ.

We go through two molecules from US12624096B2, “Anti-tau antibodies and methods of use thereof” (GTInvent Limited, priority 2020, dated 2026).

T1 sequence (P10636 614-708): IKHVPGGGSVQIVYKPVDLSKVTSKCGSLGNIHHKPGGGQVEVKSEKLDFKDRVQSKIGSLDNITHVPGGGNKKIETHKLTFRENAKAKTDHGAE
Chain of dGAE aggregates (P10636 614-708): as above

B1: S1D12: anti-tau clone from immunised sheep, SEQ ID NO: 32 (protein)
scFv: QVQLQESGPSLVKPSQTLSLTCTVSGFSLNNNAVGWVRQAPGKVPESLVGCSSDGTCYYNSALKSRLDITRDTSKNQISLSLSSVTTDDAAVYYCTRGHYSIYGYDYLGTIDYWGPGLLVTVSSEGKSSGASGESKVDDQAVLTQPSSVSGSLGQRVSITCSGSSSNVGGGNSVGWYQHLPGSGLKTIIYDTNSRPSGVPDRFSGSRSGNTATLTINSLQAEDEGDYYCVTGDSTTHDDLVGSGTRLTVLG
modifications: S1D12 amino acid sequence
With B1, the “Critical residues of the epitope” value in data set [1] is reported as 343 (K), 346 (F) and/or 349 (R). In data set [2], the “Tmax (time of peak plasma concentration)” value amounted to 24 h. For the same molecule, the “t1/2 (elimination half-life from plasma)” value in data set [2] (non-compartmental analysis) is 10.68 days. Besides, the Cmax in data set [2] (read-out: Cmax (peak plasma concentration)) worked out at 1460 nM. The “ThS fluorescence signal at 483 nm” value in the data set with dGAE [3] is reported as “this signal was abolished; also recorded: abolished when s1D12 is included in the assembly mixture”. Also, the “dGAE secondary structure by CD” value in the data set with dGAE [4] is given as “dGAE cannot assemble into β-sheet rich fibrils; also recorded: indicating that dGAE has not assembled into fibrils”. The “increase in plasma tau vs vehicle, NT1 assay” value in the data set on plasma tau is “four-fold increase”. Further, in the data set with plasma tau (S1D12 mAb 30 mg/kg weekly for 6 weeks), the “plasma tau, NT1 assay (BT2 capture with Tau12 detection)” value was found to be 3.2 ± 0.42 pg/mL. The “increase in plasma tau vs vehicle, BT2-HT7” value with plasma tau (did not reach statistical significance) is on record as “two-fold increase”.

B2: S1G2: anti-tau clone, SEQ ID NO: 81 (protein)
scFv: QVQLQESGPSLVKPSQTLSLTCTVSGFSLTSNSVGWVRQAPGKAPEWVAGIDTDGEEGYNPALNSRLSITRDTSKSQVSLSLSSVTSEDTAVYYCGRSYRADGLAYGYVQAIDYWGPGLLVTVSSEGKSSGASGESKVDDQAVVTQPSSVSGSLGQRVSITCSGSFIGISSVGWFQQLPGSGLRTIIVASDGRPSGVPDRFSMSKSGNTATLTISSLQAEDEADYFCGSSDRTPYTGVFGSGTRLTVLG
modifications: S1G2 amino acid sequence
In the case of B2, the “Critical residues of the epitope” value in data set [1] is 370 (K) and/or 374 (H). Moreover, the LoD was 250 ng/mL with dGAE aggregates (S1D12 mAb capture, untreated dGAE agg.) and 16 ng/mL with dGAE aggregates (direct immobilisation of dGAE aggregates, +SDS Triton).
